Results published in patent US20090264354A1 (UNIVERSITY OF UTAH RESEARCH FOUNDATION, published 2009).

Molecular target: the molecule itself
Assay: anti-Myc immunoprecipitation from co-transfected NIH3T3 lysates, non-reducing Western blot; 58-kD disulfide-bonded homodimer
Excerpt: This example describes the analysis of the protein structure of Penumbra protein. NIH3T3 fibroblasts were co-transfected with pcDNA3.1/Pen-Myc and pEGFP NI/Pen. The latter expressed murine Penumbra (SEQ ID NO:3) as a fusion protein with enhanced green fluorescent protein (EGFP) in its C-terminus. The Pen-Myc fusion protein was first immunoprecipitated from cell lysates using the anti-Myc MAb, Western blotted and sequentially probed with anti-Myc and anti-EGFP antibodies. It appeared that both Pen-Myc/Pen-Myc and Pen-Myc/Pen-EGFP dimers were apparent in the immunoprecipitates under non-reducing conditions and they appeared to dissociate into monomers after reduction indicating they appear to form disulfide-bonded homodimers. It appeared that under reducing conditions, all Pen-Myc fusion proteins existed as 29-kD monomers. In contrast, under non-reducing conditions, it appeared that about half of Pen-Myc protein existed as 58-kD homodimers, while the remaining Pen-Myc protein appeared to exist either as 29-kDa monomers or 89-kDa dimers with Pen-EGFP. […] The same blot was then stripped and reprobed with anti-EGFP antibodies to reveal an apparent ˜60-kD Pen-EGFP monomer and the 89-kD Pen-Myc/Pen-EGFP dimer.

B1: Penumbra-Myc fusion protein (murine Penumbra with C-terminal 11-aa Myc and 6-aa His tags, expressed from pcDNA3.1/Pen-Myc) (other)
chain: MARRPGVPAAYGDEFSFVSPLVKYLLFFFNMLFWVISMVMVAVGVYARLMKHAEAALACLAVDPAILLIVVGVLMFLLTFCGCIGSLRENICLLQTFSLCLTIVFLLQLAAGILGFVFSDKARGKVSEIINNAIVHYRDDLDLQNLIDFGQKKFSCCGGISYRDWSQNMYFNCSEDNPSRERCSVPYSCCLPTPRQAVINTMCGQGMQANDYLEASKVIYTNGCIDKLVNWIHSNLFLLGGVALGLAIPQLVGILLSQVLVNQIKDQIKLQLYNQQHRADPWY
notes: Seen as a 29-kD monomer on reducing gels; also called Pen-Myc fusion protein; Pen-Myc protein; not shown: 11-aa Myc tag from the pcDNA3.1 vector; 6-aa His tag from the pcDNA3.1 vector
binding result: binds
